Measured values reported in patent US20110275559A1, “Long-Acting Y2 and/or Y4 Receptor Agonists” (Novo Nordisk A/S, priority 2008, published 2011).
*1 amine or outer side, *2 acyl side, *3 side chain or, on linkers, in order; H or OH if unused. Where a SMILES comes first, the peptide text is derived from it. Where no end group is shown, it is not given here. Side-chain parts run from the residue outwards. The star is where a group is joined. C20 diacid = O=C(O)CCCCCCCCCCCCCCCCCCC(=O)*; C18 diacid = O=C(O)CCCCCCCCCCCCCCCCC(=O)*; γGlu = O=C(O)[C@H](CCC(=O)[*:2])N[*:1]; Trx = NC[C@H]1CC[C@H](C(=O)O)CC1; AEEA = NCCOCCOCC(=O)O

T1: Y2 receptor (UniProt P49146 1-381, limits assumed)
T1 sequence (looked up): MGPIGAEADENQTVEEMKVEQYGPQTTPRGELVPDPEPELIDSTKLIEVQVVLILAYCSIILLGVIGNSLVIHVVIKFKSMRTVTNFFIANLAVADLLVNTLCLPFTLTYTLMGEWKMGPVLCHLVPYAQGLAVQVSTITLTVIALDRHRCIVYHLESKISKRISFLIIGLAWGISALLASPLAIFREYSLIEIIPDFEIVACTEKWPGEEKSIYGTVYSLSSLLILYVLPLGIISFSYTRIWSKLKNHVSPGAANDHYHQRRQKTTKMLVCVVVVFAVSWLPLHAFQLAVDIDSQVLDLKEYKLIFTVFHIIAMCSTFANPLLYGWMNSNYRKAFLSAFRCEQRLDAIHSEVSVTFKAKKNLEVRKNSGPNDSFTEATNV

B1: N-alfa-[2-(2-{2-[2-(2-{2-[(S)-4-Carboxy-4-({trans-4-[(19-carboxynonadecanoylamino)methyl]cyclohexanecarbonyl}amino)butyrylamino]-ethoxy}ethoxy)acetylamino]ethox … (peptide)
peptide: PLEPVYPGDNATPEQLAQYAADLRRYINLLTRPRY
modifications: not fully specified (N-terminus); printed as N-alfa-[2-(2-{2-[2-(2-{2-[(S)-4-Carboxy-4-({trans-4-[(19-carboxynonadecanoylamino)methyl]cyclohexanecarbonyl}amino)butyrylamino]-ethoxy}ethoxy)acetylamino]ethoxy}ethoxy)acetyl][Leu17,Leu30]hPP2-36; ends and bridges not checked

How the values were obtained:
[1] = in vivo; conditions: Göttingen, minipig, iv
Procedure: (§1) The mini-pigs had two central venous catheters inserted which were used for intra venous (i.v.) dosing and bloodsampling. Compound was dissolved in 50 mM K2HPO4, 0.05% tween 80, pH=8.0 to a concentration of 180 nmol/ml. The pigs were dosed with 6 nmol compound/kg body weight. […] The blood samples were collected into test tubes containing EDTA buffer for stabilization and kept on ice for max. 20 minutes before centrifugation. The centrifugation procedure to separate plasma was; 4° C., 3000 rpm for 10 minutes. Plasma were collected and immediately transferred to Micronic tubes stored at −20° C. until assayed.
An additional mini-pig PK assay was used for measuring PK of the compounds of the invention. […] The animals had two central venous catheters inserted which were used for intra venous (i.v.) dosing and blood sampling. Compounds were dissolved in 10 mM Na2HPO4, 150 mM NaCl, 0.01% tween 80, pH=4.0 to concentrations in the range of 40 nmol/ml to 200 nmol/ml. The mini-pigs were dosed i.v. with 10 nmol compound/kg body weight, occasionally other doses such as 4 nmol/kg, 30 nmol/kg or 50 nmol/kg were administered. Each compound was dosed to 3 or 4 mini-pigs, and two compounds may be given simultaneously to the same animal. Blood were sampled pre-dose and 12 times during the first 10 hours post-dose. Blood were furthermore sampled once daily until 13 days post dosing. The blood samples were collected into test tubes containing EDTA buffer, trasylol and Val-Pyr for stabilization and kept on ice for max. 20 minutes. Samples were centrifuged at 4° C., 2000G for 10 minutes to separate plasma. Plasma were collected and immediately transferred to Micronic tubes stored at −20° C. until assayed.
Plasma samples were analysed by LC-MS on an LTQ-Orbitrap (ThermoFisher Scientific, Bremen) to which Accela HPLC pumps and an autosampler were connected (both from ThermoFisher). […] HPLC was performed on a Jupiter Proteo column (4μ) 90A (50×2.0 mm ID). […] The flow rate was 0.3 ml/min. For analysis of plasma samples, 30 μl plasma was precipitated with 90 μl ethanol. […] The heptane phase was removed after 5 min and the remaining solution was analysed by LC-MS as described above. For construction of plasma standards, compound was spiked to plasma (minipig) at the following concentrations: 1 nM, 2 nM, 5 nM, 10 nM, 20 nM, 50 nM, 100 nM, 200 nM. The plasma standards were treated as the samples. The lower limit of quantification was estimated to 2 nM.
Non-compartmental analysis (NCA): Plasma concentration-time profiles were analyzed by non-compartmental pharmacokinetics analysis (NCA) using WinNonlin Professional 5.0 (Pharsight Inc., Mountain View, Calif., USA). NCA was performed using the individual plasma concentration-time profiles from each animal.
For determination of plasma concentration of the PYY and PP peptide derivative or analogues thereof the following Methods 1-4 were used.
as §1, with “bloodsampling. The compound” for “bloodsampling. Compound”, “to an appropriate” for “to a”, “concentration (e.g. 25-500 nmol/mL).” for “concentration of 180 nmol/ml.”, “dosed intravenously (i.v.) or subcutaneously (s.c.)” for “dosed”, “with between 1 and 30” for “with 6”, “buffer (with Aprotinin 15000 KIE/mL and Val-Pyr 0.30 mM)” for “buffer”
An additional mini-pig PK assay was used for measuring PK of the compounds of the invention. […] The animals had two central venous catheters inserted which were used for intra venous (i.v.) dosing and blood sampling.

[2] = molecular target: T1, Y2 receptor; test: cell-based or functional assay
[3] = molecular target: Y4 receptor (UniProt P50391 1-375, limits assumed); test: cell-based or functional assay
Y4 receptor, sequence (P50391 whole entry): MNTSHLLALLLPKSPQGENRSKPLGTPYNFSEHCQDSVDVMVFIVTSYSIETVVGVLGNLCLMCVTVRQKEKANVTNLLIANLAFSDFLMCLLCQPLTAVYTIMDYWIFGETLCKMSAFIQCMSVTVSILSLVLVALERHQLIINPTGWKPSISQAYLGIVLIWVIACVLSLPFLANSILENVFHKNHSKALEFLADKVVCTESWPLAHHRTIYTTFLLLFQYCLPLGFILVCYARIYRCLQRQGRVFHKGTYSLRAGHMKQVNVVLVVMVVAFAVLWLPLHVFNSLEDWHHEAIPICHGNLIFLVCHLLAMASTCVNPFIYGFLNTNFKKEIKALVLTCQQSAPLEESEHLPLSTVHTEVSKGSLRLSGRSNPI

Molecule	Y2 cAMP EC50 [2] [nM]	Y4 cAMP EC50 [3] [nM]	other results
CC[C@H](C)[C@H](NC(=O)[C@H](Cc1ccc(O)cc1)NC(=O)[C@H](CCCNC(=N)N)NC(=O)[C@H](CCCNC(=N)N)NC(=O)[C@H](CC(C)C)NC(=O)[C@H](CC(=O)O)NC(=O)[C@H](C)NC(=O)[C@H](C)NC(=O)[C@H](Cc1ccc(O)cc1)NC(=O)[C@H](CCC(N)=O)NC(=O)[C@H](C)NC(=O)[C@H](CCSC)NC(=O)[C@H](CCC(N)=O)NC(=O)[C@H](CCC(=O)O)NC(=O)[C@@H]1CCCN1C(=O)[C@H](CCCCNC(=O)COCCOCCNC(=O)COCCOCCNC(=O)CC[C@H](NC(=O)CCCCCCCCCCCCCCCCC(=O)O)C(=O)O)NC(=O)[C@H](C)NC(=O)[C@H](CC(N)=O)NC(=O)[C@H](CC(=O)O)NC(=O)CNC(=O)[C@@H]1CCCN1C(=O)[C@H](Cc1ccc(O)cc1)NC(=O)[C@@H](NC(=O)[C@@H]1CCCN1C(=O)[C@H](CCC(=O)O)NC(=O)[C@H](CC(C)C)NC(=O)[C@@H]1CCCN1C(=O)[C@H](C)N)C(C)C)C(=O)N[C@@H](CC(N)=O)C(=O)N[C@@H](CCSC)C(=O)N[C@@H](CC(C)C)C(=O)N[C@H](C(=O)N[C@@H](CCCNC(=N)N)C(=O)N1CCC[C@H]1C(=O)N[C@@H](CCCNC(=N)N)C(=O)N[C@@H](Cc1ccc(O)cc1)C(N)=O)[C@@H](C)O [SEQ ID NO: 24, N-epsilon13-[2-(2-{2-[2-(2-{2-[(S)-4-Carboxy-4-(17-carboxyheptadecanoylamino)butyrylamino]ethoxy}ethoxy)acetylamino]-ethoxy}ethoxy)acetyl][Lys13]hPP(1-36)] (H-APLEPVYPGDNAK([AEEA-AEEA-γGlu-C18 diacid])PEQMAQYAADLRRYINMLTRPRY-NH2; N-terminus and C-terminus assumed)			half-life ([1]; 20 nmol/kg): 210 min
CC[C@H](C)[C@H](NC(=O)[C@H](Cc1ccc(O)cc1)NC(=O)[C@H](CCCNC(=N)N)NC(=O)[C@H](CCCCNC(=O)COCCOCCNC(=O)COCCOCCNC(=O)CC[C@H](NC(=O)CCCCCCCCCCCCCCCCC(=O)O)C(=O)O)NC(=O)[C@H](CC(C)C)NC(=O)[C@H](CC(=O)O)NC(=O)[C@H](C)NC(=O)[C@H](C)NC(=O)[C@H](Cc1ccc(O)cc1)NC(=O)[C@H](CCC(N)=O)NC(=O)[C@H](C)NC(=O)[C@H](CC(C)C)NC(=O)[C@H](CCC(N)=O)NC(=O)[C@H](CCC(=O)O)NC(=O)[C@@H]1CCCN1C(=O)[C@@H](NC(=O)[C@H](C)NC(=O)[C@H](CC(N)=O)NC(=O)[C@H](CC(=O)O)NC(=O)CNC(=O)[C@@H]1CCCN1C(=O)[C@H](Cc1ccc(O)cc1)NC(=O)[C@@H](NC(=O)[C@@H]1CCCN1C(=O)[C@H](CCC(=O)O)NC(=O)[C@H](CC(C)C)NC(=O)[C@@H]1CCCN1)C(C)C)[C@@H](C)O)C(=O)N[C@@H](CC(N)=O)C(=O)N[C@@H](CC(C)C)C(=O)N[C@@H](CC(C)C)C(=O)N[C@H](C(=O)N[C@@H](CCCNC(=N)N)C(=O)N1CCC[C@H]1C(=O)N[C@@H](CCCNC(=N)N)C(=O)N[C@@H](Cc1ccc(O)cc1)C(N)=O)[C@@H](C)O [SEQ ID NO: 49, N-epsilon25-[2-(2-{2-[2-(2-{2-[(S)-4-Carboxy-4-(17-carboxyheptadecanoylamino)butyrylamino]ethoxy}ethoxy)acetylamino]-ethoxy}ethoxy)acetyl][Leu17,Lys25,Leu30]hPP2-36] (H-PLEPVYPGDNATPEQLAQYAADLK([AEEA-AEEA-γGlu-C18 diacid])RYINLLTRPRY-NH2)			half-life ([1]; 10 nmol/kg): 5280 min
CC[C@H](C)[C@H](NC(=O)[C@H](Cc1ccc(O)cc1)NC(=O)[C@H](CCCNC(=N)N)NC(=O)[C@H](CCCNC(=N)N)NC(=O)[C@H](CC(C)C)NC(=O)[C@H](CC(=O)O)NC(=O)[C@H](C)NC(=O)[C@H](C)NC(=O)[C@H](Cc1ccc(O)cc1)NC(=O)[C@H](CCC(N)=O)NC(=O)[C@H](C)NC(=O)[C@H](CC(C)C)NC(=O)[C@H](CCC(N)=O)NC(=O)[C@H](CCCCNC(=O)COCCOCCNC(=O)COCCOCCNC(=O)CC[C@H](NC(=O)[C@H]1CC[C@H](CNC(=O)CCCCCCCCCCCCCCCCCCC(=O)O)CC1)C(=O)O)NC(=O)[C@@H]1CCCN1C(=O)[C@@H](NC(=O)[C@H](C)NC(=O)[C@H](CC(N)=O)NC(=O)[C@H](CC(=O)O)NC(=O)CNC(=O)[C@@H]1CCCN1C(=O)[C@H](Cc1ccc(O)cc1)NC(=O)[C@@H](NC(=O)[C@@H]1CCCN1C(=O)[C@H](CCC(=O)O)NC(=O)[C@H](CC(C)C)NC(=O)[C@@H]1CCCN1C(=O)[C@H](C)N)C(C)C)[C@@H](C)O)C(=O)N[C@@H](CC(N)=O)C(=O)N[C@@H](CC(C)C)C(=O)N[C@@H](CC(C)C)C(=O)N[C@H](C(=O)N[C@@H](CCCNC(=N)N)C(=O)N1CCC[C@H]1C(=O)N[C@@H](CCCNC(=N)N)C(=O)N[C@@H](Cc1ccc(O)cc1)C(N)=O)[C@@H](C)O [SEQ ID NO: 72, N-epsilon15-[2-(2-{2-[2-(2-{2-[(S)-4-Carboxy-4-({trans-4-[(19-carboxynonadecanoylamino)methyl]cyclohexanecarbonyl}amino)butyrylamino]-ethoxy}ethoxy)acetylamino]ethoxy}ethoxy)acetyl][Leu17,Lys15,Leu30]hPP1-36] (H-APLEPVYPGDNATPK([AEEA-AEEA-γGlu-Trx-C20 diacid])QLAQYAADLRRYINLLTRPRY-NH2)			half-life ([1]; in vivo, 8 nmol/kg): 840 min
PLEPVYPGK([AEEA-AEEA-γGlu-Trx-C20 diacid])NATPEQLAQYAADLRRYINLLTRQRY (ends and bridges not checked)	25		
{C18 diacid-γGlu-AEEA-AEEA}-PLEPVYPGDNATPEQLAQYAADLRRYINLLTRPRY (ends and bridges not checked)	> 1000		
B1	> 1000		
PLEPVYPGDNATPEQLAQYAADLRRYINLLTRPK([AEEA-AEEA-γGlu-Trx-C20 diacid])Y (ends and bridges not checked)	> 1000	> 1000	
APLEPVYPGDNAK([AEEA-AEEA-γGlu-C18 diacid])PEQMAQYAADLRRYINMLTRPRY (ends and bridges not checked) [N-epsilon13-[2-(2-{2-[2-(2-{2-[(S)-4-Carboxy-4-(17-carboxyheptadecanoylamino)butyrylamino]ethoxy}ethoxy)acetylamino]-ethoxy}ethoxy)acetyl][Lys13]hPP(1-36) (as …, listing 1 of 2 here]		4	
APLEPVYPGDNAK([AEEA-AEEA-γGlu-C18 diacid])PEQMAQYAADLRRYINMLTRPRY (ends and bridges not checked) [N-epsilon13-[2-(2-{2-[2-(2-{2-[(S)-4-Carboxy-4-(17-carboxyheptadecanoylamino)butyrylamino]ethoxy}ethoxy)acetylamino]-ethoxy}ethoxy)acetyl][Lys13]hPP(1-36) (as …, listing 2 of 2 here]		2	
